Reference: patent US20130224224A1 (Boehringer Ingelheim, published 2013)

T1: human CX3CR1 (human, UniProt P49238 1-355)
T1 construct: overexpressed on CHO, BA/F3 or HEK293T cells; also called huCX3CR1; hCX3CR1
T1 sequence: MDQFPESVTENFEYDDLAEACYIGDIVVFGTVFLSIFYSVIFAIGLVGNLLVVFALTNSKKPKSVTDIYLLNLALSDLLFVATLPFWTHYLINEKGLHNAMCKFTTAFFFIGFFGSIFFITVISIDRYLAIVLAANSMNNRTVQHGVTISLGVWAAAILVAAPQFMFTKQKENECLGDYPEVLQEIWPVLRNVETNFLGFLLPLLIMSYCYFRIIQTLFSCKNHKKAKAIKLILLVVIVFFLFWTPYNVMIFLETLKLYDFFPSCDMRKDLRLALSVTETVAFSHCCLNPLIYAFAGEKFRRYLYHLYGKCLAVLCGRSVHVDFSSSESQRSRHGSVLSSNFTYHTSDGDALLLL

T2: cynomolgus CX3CR1 (cynomolgus, UniProt P49238 1-355 (human entry))
T2 construct: transiently expressed on HEK293T cells; also called cyCX3CR1; cyno CX3CR1
T2 chain: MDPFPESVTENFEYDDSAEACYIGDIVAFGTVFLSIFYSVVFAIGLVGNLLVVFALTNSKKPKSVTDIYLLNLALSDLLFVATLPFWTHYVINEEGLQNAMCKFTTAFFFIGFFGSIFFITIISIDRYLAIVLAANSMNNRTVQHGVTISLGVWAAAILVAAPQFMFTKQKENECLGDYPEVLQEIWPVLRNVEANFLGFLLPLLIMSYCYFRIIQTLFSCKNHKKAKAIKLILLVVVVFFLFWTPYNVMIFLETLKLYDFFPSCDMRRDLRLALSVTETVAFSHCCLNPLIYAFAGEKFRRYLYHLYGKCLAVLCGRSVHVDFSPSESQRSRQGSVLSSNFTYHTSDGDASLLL


Experiments:
human CX3CR1 [1] = target: T1, human CX3CR1; assay: A647-fractalkine competition FACS, HEK293T human CX3CR1
Method: (§1) For later identified VHHs, a human Fractalkine competition FACS was set up using human or cynomolgus CX3CR1 expressed in HEK293T cells. Both the human and the cynomolgus receptor was transiently transfected in HEK293T cells and transfections were matched by the binding of the labeled ligand, human fractalkine. The competition was evaluated using the EC30 concentration of fractalkine and as such obtained IC50 values are a good estimate of the Ki value, a measure for affinity (Table 22). The experiment was performed as described in Example 4. The ratio of the IC50 values on cynomolgus monkey and human CX3CR1 was used to evaluate potential differences in affinity for CX3CR1 in both species.
(§2) Also for the bivalent constructs the cross reactivity towards cynomolgus CX3CR1 was evaluated and compared with the human reactivity. As described earlier, either a binding setup (Table 27) or a ligand competition setup (Table 28) were applied using transient transfected HEK293T cells. Batches of transient transfected cells were matched by their receptor expression level.

cynomolgus CX3CR1 [2] = target: T2, cynomolgus CX3CR1; assay: A647-fractalkine competition FACS, HEK293T cynomolgus CX3CR1
Method: as §1, §2

human CX3CR1 [3] = target: T1, human CX3CR1; assay: cell-based or functional assay
cynomolgus CX3CR1 [4] = target: T2, cynomolgus CX3CR1; assay: A647-fractalkine competition FACS, cynomolgus against human CX3CR1
Method: as §1, §2

human CX3CR1 [5] = target: T1, human CX3CR1; assay: A647-fractalkine competition FACS, HEK293-huCX3CR1

Row | % block (human CX3CR1 [1]) [%] | IC50 (human CX3CR1 [1]) [nM] | % block (cynomolgus CX3CR1 [2]) [%] | IC50 (cynomolgus CX3CR1 [2]) [nM] | % block, fractalkine induced chemotaxis (human CX3CR1 [3]) [%] | IC50, fractalkine induced chemotaxis (human CX3CR1 [3]) [nM] | ratio (cynomolgus/human IC50) (cynomolgus CX3CR1 [4]) | % block (human CX3CR1 [5]) [%] | IC50 (human CX3CR1 [5]) [nM] | Binder
1 | 102 | 0.19 | 98 | 0.69 | 88 | 2 | 3.67 | 102 | 0.19 | CX3CR1BII016 (VHH, expressed in E. coli as described for the monovalent VHHs) EVQLVESGGGSVQAGESLRLSCAASGSIFSSNAMAWYRQAPGKQRDLVAVINSVGITKYADSVKGRFTISGDNAKNTVYLQMNSLKPEDTAVYYCTSDARRGWDTRYWGQGTQVTVSSGGGGSGGGGSGGGGSGGGGSGGGGSGGGGSGGGGSEVQLVESGGGSVQAGESLRLSCAASGSIFSSNAMAWYRQAPGKQRDLVAVINSVGITKYADSVKGRFTISGDNAKNTVYLQMNSLKPEDTAVYYCTSDARRGWDTRYWGQGTQVTVSS
2 | 102 | 0.22 | 97 | 0.32 | 85 | 2 | 1.47 | 102 | 0.22 | CX3CR1BII020 (VHH, expressed in E. coli as described for the monovalent VHHs) EVQLVESGGGSVQAGESLRLSCAASGSIFSSNAMAWYRQAPGKQRDLVAGINSVGITKYADSVKGRFTISRDNAKNTAYLQMNSLKPEDTAVYYCTSDPRRGWDTRYWGQGTLVTVSSGGGGSGGGGSGGGGSGGGGSGGGGSGGGGSGGGGSEVQLVESGGGSVQAGESLRLSCAASGSIFSSNAMAWYRQAPGKQRDLVAGINSVGITKYADSVKGRFTISRDNAKNTAYLQMNSLKPEDTAVYYCTSDPRRGWDTRYWGQGTLVTVSS
3 | 100 | 0.29 | 96 | 0.82 | 85 | 2 | 2.86 | 100 | 0.29 | CX3CR1BII019 (VHH, expressed in E. coli as described for the monovalent VHHs) EMQLVESGGGSVQAGESLRLSCAASGSIFSSNAMAWYRQAPGKQRDLVALINSVGITKYADSVKGRFTISRDNAKNTVYLQMNSLKPEDTAVYYCTSDGRRGWDTRYWGQGTQVTVSSGGGGSGGGGSGGGGSGGGGSGGGGSGGGGSGGGGSEMQLVESGGGSVQAGESLRLSCAASGSIFSSNAMAWYRQAPGKQRDLVALINSVGITKYADSVKGRFTISRDNAKNTVYLQMNSLKPEDTAVYYCTSDGRRGWDTRYWGQGTQVTVSS
4 | 102 | 0.03 | 97 | 0.1 | 98 | 0.6 | 3.33 | 102 | 0.3 | CX3CR1BII018 (VHH, A647 label where used as labeled competitor (Example 14), expressed in E. coli as described for the monovalent VHHs; also called A647-018; A647 labeled CX3CR1BII018) EVQLVESGGGSVQAGESLRLSCAASGSIFSSNAMAWYRQAPGKRRDLVAAINSVGVTKYADSVKGRFTISRDNAKNTVYLQMNSLKPEDTAVYYCTSDPRRGWDTRYWGQGTQVTVSSGGGGSGGGGSGGGGSGGGGSGGGGSGGGGSGGGGSEVQLVESGGGSVQAGESLRLSCAASGSIFSSNAMAWYRQAPGKRRDLVAAINSVGVTKYADSVKGRFTISRDNAKNTVYLQMNSLKPEDTAVYYCTSDPRRGWDTRYWGQGTQVTVSS
5 | 99 | 0.31 | 95 | 1.6 | 89 | 3 | 5.34 | 99 | 0.31 | CX3CR1BII017 (VHH, expressed in E. coli as described for the monovalent VHHs) EVQLVESGGGSVQAGESLRLSCAASGSIFSSNAMAWYRQAPPGKQRDLVALINSVGITKYADSVKGRFTISSDNAKNTVYLEMNSLKPEDTAVYYCTSDGRRGWDTRYWGQGTQVTVSSGGGGSGGGGSGGGGSGGGGSGGGGSGGGGSGGGGSEVQLVESGGGSVQAGESLRLSCAASGSIFSSNAMAWYRQAPPGKQRDLVALINSVGITKYADSVKGRFTISSDNAKNTVYLEMNSLKPEDTAVYYCTSDGRRGWDTRYWGQGTQVTVSS
